The values that follow come from paper PMC13260207.

In experiment [1] the target is recombinant PI4KIIα (lab-made) (human) (UniProt Q9BTU6). Nature of the experiment: MST; fluorescently labelled PI4KIIα (5 nM) constant, unlabelled ligand protein titrated; Tris-based MST buffer; Monolith NT.115 pico; no PI.
Experiment [2] has the same target. Nature of the experiment: MST; fluorescently labelled PI4KIIα (5 nM) mixed with 1 μM PI (micelles) before the ligand protein, unlabelled ligand titrated; Tris-based MST buffer; Monolith NT.115 pico.

Sequence of UniProt Q9BTU6 (Q9BTU6 whole entry): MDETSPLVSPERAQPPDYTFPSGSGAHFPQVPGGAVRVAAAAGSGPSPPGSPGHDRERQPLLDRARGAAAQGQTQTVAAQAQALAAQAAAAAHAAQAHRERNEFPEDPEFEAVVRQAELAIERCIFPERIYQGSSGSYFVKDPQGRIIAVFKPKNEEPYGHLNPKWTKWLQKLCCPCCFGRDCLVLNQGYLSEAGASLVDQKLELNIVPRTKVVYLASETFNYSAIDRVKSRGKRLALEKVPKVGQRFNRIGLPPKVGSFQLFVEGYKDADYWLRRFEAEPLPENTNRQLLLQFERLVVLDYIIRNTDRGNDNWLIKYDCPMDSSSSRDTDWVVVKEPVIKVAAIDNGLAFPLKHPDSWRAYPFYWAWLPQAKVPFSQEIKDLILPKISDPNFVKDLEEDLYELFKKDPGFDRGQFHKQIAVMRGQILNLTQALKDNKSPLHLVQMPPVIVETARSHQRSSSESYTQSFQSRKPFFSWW

As for “recombinant PITPα (#ab101666, Abcam) (from UniProt Q00169 1-270) (natural protein)”, the Kd in experiment [1] amounted to 189 nM.
As for “recombinant PITPβ (#LS-C794864, LSBio) (from UniProt P48739 1-271) (natural protein)”, the Kd came out at 263 nM in experiment [1] and 113 nM in experiment [2].
